Series [1] addresses T1, SyMDH (Synechocystis sp. PCC 6803, UniProt Q55383).
T1 construct: gene mdh; full ORF in pGEX5X-1, N-terminal GST tag kept, E. coli expression, glutathione-Sepharose purification
T1 sequence (Q55383 1-324): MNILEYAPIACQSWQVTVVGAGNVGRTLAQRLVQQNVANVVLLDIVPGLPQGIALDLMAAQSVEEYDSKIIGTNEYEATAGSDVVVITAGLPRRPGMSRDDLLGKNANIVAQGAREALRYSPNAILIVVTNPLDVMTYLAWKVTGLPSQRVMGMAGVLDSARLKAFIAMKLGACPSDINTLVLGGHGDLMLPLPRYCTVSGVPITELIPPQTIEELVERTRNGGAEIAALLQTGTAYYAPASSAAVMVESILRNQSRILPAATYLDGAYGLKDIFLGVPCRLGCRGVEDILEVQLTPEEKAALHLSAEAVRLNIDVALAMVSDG
Briefly: spectrophotometric assay at […] nm; fit to modified Michaelis-Menten equation. The following applies: substrate inhibition by NAD+; oxidative reaction, 4.0 mM malate, 100 mM potassium phosphate pH 8.0. Format: biochemical.

In series [2] the target is T1, SyMDH. Briefly: spectrophotometric assay at […] nm with effector. Format: biochemical. The note with it: read-out: % activity at 1 mM.
Substrate in series [3]: O=C(O)C[C@H](O)C(=O)O
Briefly: purified protein. The following applies: oxidative reaction, 8.0 mM NAD+, 100 mM potassium phosphate pH 8.0.

Substrate in series [4]: NC(=O)c1ccc[n+]([C@@H]2O[C@H](COP(=O)(O)OP(=O)(O)OC[C@H]3O[C@@H](n4cnc5c(N)ncnc54)[C@H](O)[C@@H]3O)[C@@H](O)[C@H]2O)c1
Put plainly: purified protein. Format: biochemical, Synechocystis sp. PCC 6803. The note with it: oxidative reaction, 4.0 mM malate, 100 mM potassium phosphate pH 8.0; pH 8.0.

Substrate in series [5]: NC(=O)C1=CN([C@@H]2O[C@H](COP(=O)(O)OP(=O)(O)OC[C@H]3O[C@@H](n4cnc5c(N)ncnc54)[C@H](O)[C@@H]3O)[C@@H](O)[C@H]2O)C=CC1
Briefly: purified protein. Format: biochemical, Synechocystis sp. PCC 6803. The following applies: reductive reaction, 0.1 mM oxaloacetate, 100 mM potassium phosphate pH 6.5; pH 6.5.

Substrate in series [6]: O=C(O)CC(=O)C(=O)O
Put plainly: purified protein. Format: biochemical, Synechocystis sp. PCC 6803. The note with it: reductive reaction, 0.1 mM NADH, 100 mM potassium phosphate pH 6.5; no added effector; pH 6.5.

We go through three molecules from paper PMC6053527 (Frontiers in Plant Science, 2018).

The term Km denotes the substrate concentration at which the rate is half of its maximum. In general, kcat refers to the maximal rate divided by the concentration of active sites.

`NC(=O)c1ccc[n+]([C@@H]2O[C@H](COP(=O)(O)OP(=O)(O)OC[C@H]3O[C@@H](n4cnc5c(N)ncnc54)[C@H](O)[C@@H]3O)[C@@H](O)[C@H]2O)c1` [NAD^+] gave a Ki on SyMDH [1] of 14.5 mM.

On to `O=C(O)/C=C/C(=O)O` [fumarate], for which the activity at 1000 µM at SyMDH [2] is approximately 170%.

B1: SyMDH (Synechocystis sp. PCC 6803 substr. Kazusa) (protein)
chain: T1 sequence (Q55383 1-324)
notes: full ORF in pGEX5X-1, N-terminal GST tag kept, E. coli expression, glutathione-Sepharose purification
Consider B1, for which the Km in the series “purified protein [3]” turned out to be 2600 µM; in “purified protein [4]”, 580 µM; in “purified protein [5]” it was 30 µM; in the series “purified protein [6]” it was 12 µM. For the same molecule, the kcat in “purified protein [3]” was 0.43 s⁻¹; in “purified protein [4]” it was 0.21 s⁻¹; in the series “purified protein [5]”, 0.97 s⁻¹; in “purified protein [6]” it was 0.71 s⁻¹.
